Measurements from the DeepSol protein solubility set.

assay: soluble on expression in E. coli; label from the status in PepcDB or PDB records

| Sequence | soluble on expression in E. coli |
| --- | --- |
| MLASFLKLKTYCEQEGFKGWDPYDGLNSKVFRALPLLKQSALCRLIVIQGFKRSPINLRRLALVPKEYNAKGIGLFLQGYCNLYRLVERNPQLTKELGSREELLEQVKKLADLLLELRSPGDYSGACWGYNFDWQARRLFLFPKYTPTVVATNFCATALMEAYEVTRQQEYLDVALSAAQFVIKDLHRTAYRDGFLFSYSPLDGNDTVFNASLLGARLLSYCYHYTKDEAYRTLARQTISACCAAQAEDGSWVYGMLPVQSWIDSFHTGYNLDALIAYQELTGDISFAENIERGLSYYLEHFFEADGMPKYYHDRTYPIDIHCPGQLFVSLARLHRYDEHRELVDRVMAWTISSMQDKKGYFYYQMKPGLSSKIPYMRWSNAFMFCAMSYYLINYKEISGGDFSNDQ | not soluble |
| MLASMTGYAAVSREIPQGSLALELRSVNNRYLDLQFRLPDELRALESEMRDFLGSGLTRGKVDCRLTFSSYSNSYRQQRLNRDLLQDLQIMSDEIKSIFPAAGDFSVAEILRWPGVLDSDHISIDDLRTPCMALLQTALQELVSARKREGEKLHNLLLERVQRMRQLVLDLLPGLPAILASFQERLLNSLKAAGLDEKDERIRQEFTLFANRVDVDEELSRLQGHLNEFEHILLAGGVVGKRLDFLTQELNREANTLASKSVAREVTRIAVEMKVLIEQLREQIQNIE | not soluble |
| MLCTHIKAEDCVERVPKGMFRKKQDMEDNNLFLEGNSNRGKVVKNQEIIKTFCDECDNCNKSLMCLTCGRILCGRNDSGHALHHFEETSHPVVIDCISFELYCYSCDDEVSLDFEPSLYGVLKSLKLLFDREDVMEGGDGPTIPAQPFHSRKNRISHEKSDKLRFSVKKTPIFLRNSIFLSGISENFDFSVKNGKKHQKSIFPPKKPKKSDLSAQKTSKSVFAPKQPKNSEFFNPKKHQISIFPTKNPQKFLFSVEKSIFSTINVQKCAPKKHQISIFPPKKPKNSDFPLKNPQFSFRTVTSVASTFTQKLHVAPASRNSKKKRGKKGKVSPMFVDTPPFQQQQGAAVIHDVTLSSTNSTSSGSGGATSSSEIAYRPRGMRNVGNTCFMNAVLQALASISEFREYIMSLSSLEDYIHDEKEPKNGGNYCYLTDEYRKLLISQSARSFREPTAPNEFREAFISVCPRFRGFRQHDSHEFMRYFMDSLHTEMRKCRKLPGMPDDKHTPISKYFEGTLQSSVICQTCRNCSNKIDEFMDLSLDIPAQRNASKVRLSDCLSTFFKLEMLEKGEKPECAKCKTKQTCSKQMFIRKLPQDSDEAPCTYSLQSIIVHIGYGCGSGHYIAFGKRNGRWFQFDDTVVKGVDEAHVSKQKAYVLLYTKIIRKID | not soluble |
| MLDTLLINIGQLLTMDQEDGLLRREAMNTLPVIENGVVGIENGVITFVGTAEEAKGLQAKEVIDSGGKMVSPGLVDPHTHLVFGGSRENEIALKLQGVPYLEILEQGGGILSTVNATKQASKEELVQKAKFHLDRMLSFGVTTVEAKSGYGLDDETEWKQLEATAQLQKEHPIDLVSTFLGAHAVPKEYKGRSKEFLQWMLDLLPEMKEKQLVEFVDIFCETGVFSVEESKEFLLKAKELGFDVKIHADEIDPLGGAEAAAEIGAASADHLVGASDKGIEMLANSNTVATLLPGTTFYLNKESFARGRKMIDEGVAVALATDFNPGSCPTENIQLIMSIAMLKLKMTPEEVWNAVTVNSSYAINRGDVAGKIRVGRKADLVLWDAYNYAYVPYHYGVSHVNTVWKNGNIAYTRGEQSWSTATI | not soluble |
| MLEFVMREWKKSRKLLGQRLFNKLMKMTFYGHFVAGEDQESIQPLLRHYRAFGVSAILDYGVEEDLSPEEAEHKEMESCTSAAERDGSGTNKRDKQYQAHRAFGDRRNGVISARTYFYANEAKCDSHMETFLRCIEASGRVSDDGFIAIKLTALGRPQFLLQFSEVLAKWRCFFHQMAVEQGQAGLAAMDTKLEVAVLQESVAKLGIASRAEIEDWFTAETLGVSGTMDLLDWSSLIDSRTKLSKHLVVPNAQTGQLEPLLSRFTEEEELQMTRMLQRMDVLAKKATEMGVRLMVDAEQTYFQPAISRLTLEMQRKFNVEKPLIFNTYQCYLKDAYDNVTLDVELARREGWCFGAKLVRGAYLAQERARAAEIGYEDPINPTYEATNAMYHRCLDYVLEELKHNAKAKVMVASHNEDTVRFALRRMEELGLHPADHQVYFGQLLGMCDQISFPLGQAGYPVYKYVPYGPVMEVLPYLSRRALENSSLMKGTHRERQLLWLELLRRLRTGNLFHRPA | soluble |
| MLEGVVRRREGPDYTVRIKPVARSRILTLPDAPERSSPVIVGIDPGITTGLAVLDINGRLLHAESSKSLDRSRVTEIVYGLGRPVIVAVDVADPPETAKKLAAQWGAMLYTPPADLTTSEKWGLARRVLGSSVEDTHVRDLEHHHHHH | not soluble |
| MLELKPPLVLLSGPAGFGEYLKLMDHRYVGGVLLKTVTLHPKEGNPTPRMADSDFYVINRIGLENPGIHAFVENIPELPVPMIASLGGDSFEEYLEVARVFKKVADRFYAVEFNFSCPNVKEGGLSIVKNAEEWKKLLNTLRKELPDSFLIAKVGVEGIFVEDAAEFVMKTGWDGITLVNTVRGLHFEKDTMILGGLSGPVLKPIALRAVYEVKKRFPELFVIASGGVYSVKDAEEFLKVGADVIGVGSALFKDPGVVEEIGKYLLEVKR | soluble |
| MLEMLEYNHYQVQTHLENPTKYHIQQAQRQQVKQYLSTTLANKHANQVLSLPCPNQPGDHVMPPVPGSSAPNSPMAMLTLNSNCEKEGFYKFEEQNRAESECPGMNTHSRASCMQMDDVIDDIISLESSYNEEILGLMDPALQMANTLPVSGNLIDLYGNQGLPPPGLTISNSCPANLPNIKRELTESEARALAKERQKKDNHNLIERRRRFNINDRIKELGTLIPKSNDPDMRWNKGTILKASVDYIRKLQREQQRAKELENRQKKLEHANRHLLLRIQELEMQARAHGLSLIPSTGLCSPDLVNRIIKQEPVLENCSQDLLQHHADLTCTTTLDLTDGTITFNNNLGTGTEANQAYSVPTKMGSKLEDILMDDTLSPVGVTDPLLSSVSPGASKTSSRRSSMSMEETEHTC | soluble |
| MLEQMGIAAKQASYKLAQLSSREKNRVLEKIADELEAQSEIILNANAQDVADARANGLSEAMLDRLALTPARLKGIADDVRQVCNLADPVGQVIDGGVLDSGLRLERRRVPLGVIGVIYEARPNVTVDVASLCLKTGNAVILRGGKETCRTNAATVAVIQDALKSCGLPAGAVQAIDNPDRALVSEMLRMDKYIDMLIPRGGAGLHKLCREQSTIPVITGGIGVCHIYVDESVEIAEALKVIVNAKTQRPSTCNTVETLLVNKNIADSFLPALSKQMAESGVTLHADAAALAQLQAGPAKVVAVKAEEYDDEFLSLDLNVKIVSDLDDAIAHIREHGTQHSDAILTRDMRNAQRFVNEVDSSAVYVNASTRFTDGGQFGLGAEVAVSTQKLHARGPMGLEALTTYKWIGIGDYTIRA | soluble |
| MLFDLDGTVWEGGRALPFAVDSINQVNLPLMYVTNNASRGPEVVASLLSDMGIFTQPEQVLTSAQAAIDLALKEVPVGSNVLVLGTDSFKSLAAEAGYMVVNSADMEPVAVFHGHNPATSWTELSEAALAIRCGAKYYASNLDTTLPSERGLCVGNGSMVAAVVSATGVQPVSAGKPEAAMFHVAAEKLASERPLAVGDRLNTDIAGGVAAGFDTLHLLTGVSQHWALVHAIESERPTLIAEDLRALSSDRSVLMPQLQGDFNAYLQGTEIVLNGGSTASTSTEALRSVLSVAWQSAEFGGTVKPVSEHAIRCMSEWR | not soluble |
| MLFELLYTSIAPAGLSDTELLSILEKARAKNQALDITGMLVYHNREIMQILEGEELKVRGLFQTIFQDERHTSVEVFYQGNIDHRAFSEWSMAFKLLDENTVKKMLIGYENFNPAKSPISMIASSPNRGKKTFLKLRDSL | soluble |
| MLFYLISAIIFTTVAFAAPTPAPTLTVAEEMEAIFQNLTEEAQNDYFQILFDHTLTLAELDQKWDEWAEKHGIADKWAVYTSKWQARKEKFNETTVSVIERLPSTYKMLSEITANRNQTLSQVETALEELKEKFNLEVQLILILSKTLILNEEIVLGGGPIEVGNEVTGNSFRRMRDFKNKNRDVKSLLIPGPL | not soluble |
| MLGASRWRRTSAFSGIWRIPMSSNNSSRKVVTVDEQAFERTEDAGVDEDGFKVVDDKPEFRATVQQEKQAKVDSNHPDGIVQDFSHLPLAQEEKIRAREAELDHISAQAELGTQDGRAKRTRKVVTERRQRKRAERTPDRTDPRERLSRMELAKVNQEADRMAQRLRTGHSRAAVSRALAKRVAKGQDITKAVFDTMDALKAAPGAICPIEDVPDVQTDEVSIEGEVVQLWDASSRKIAQVGLVADDTGKIKFTSWRKSEPAFVQEGDTVRMRAVKKNWYEGRCSLAVTYDSMIVFPERDRRWWEELEHHHHHH | not soluble |
